Results as given in paper PMC6080939 (The Journal of Cell Biology, 2018).
Read-outs that look alike come from different tables or passages of the source. Blank lines part the entries; values can stand above or below the molecule they belong to.

What was measured:
Experiment in all cases: AFM single-cell force spectroscopy
[1] = target: integrin α4β7 (human (endogenous in RPMI 8866–CXCR3)) (UniProt P13612)
[2] = target: integrin α4β7 (human (endogenous in RPMI 8866–CXCR3)) (UniProt P13612); remark: listed apart in the source
[3] = target: integrin α4β7 (human (endogenous in RPMI 8866–CXCR3)) (UniProt P13612); remark: listed apart in the source
[4] = target: integrin α4β7 (human (endogenous in RPMI 8866–CXCR3)) (UniProt P13612); remark: listed apart in the source
[5] = target: integrin α4β7 (human (endogenous in RPMI 8866–CXCR3)) (UniProt P13612); remark: listed apart in the source
[6] = target: integrin α4β7 (human (endogenous in RPMI 8866–CXCR3)) (UniProt P13612); remark: listed apart in the source
integrin α4β7 [7] = target: T1, integrin α4β7 (human (endogenous in RPMI 8866–CXCR3), UniProt P13612 34-1032; P26010 20-798)
T1 sequence (P13612 34-1032, chain 1 of 2): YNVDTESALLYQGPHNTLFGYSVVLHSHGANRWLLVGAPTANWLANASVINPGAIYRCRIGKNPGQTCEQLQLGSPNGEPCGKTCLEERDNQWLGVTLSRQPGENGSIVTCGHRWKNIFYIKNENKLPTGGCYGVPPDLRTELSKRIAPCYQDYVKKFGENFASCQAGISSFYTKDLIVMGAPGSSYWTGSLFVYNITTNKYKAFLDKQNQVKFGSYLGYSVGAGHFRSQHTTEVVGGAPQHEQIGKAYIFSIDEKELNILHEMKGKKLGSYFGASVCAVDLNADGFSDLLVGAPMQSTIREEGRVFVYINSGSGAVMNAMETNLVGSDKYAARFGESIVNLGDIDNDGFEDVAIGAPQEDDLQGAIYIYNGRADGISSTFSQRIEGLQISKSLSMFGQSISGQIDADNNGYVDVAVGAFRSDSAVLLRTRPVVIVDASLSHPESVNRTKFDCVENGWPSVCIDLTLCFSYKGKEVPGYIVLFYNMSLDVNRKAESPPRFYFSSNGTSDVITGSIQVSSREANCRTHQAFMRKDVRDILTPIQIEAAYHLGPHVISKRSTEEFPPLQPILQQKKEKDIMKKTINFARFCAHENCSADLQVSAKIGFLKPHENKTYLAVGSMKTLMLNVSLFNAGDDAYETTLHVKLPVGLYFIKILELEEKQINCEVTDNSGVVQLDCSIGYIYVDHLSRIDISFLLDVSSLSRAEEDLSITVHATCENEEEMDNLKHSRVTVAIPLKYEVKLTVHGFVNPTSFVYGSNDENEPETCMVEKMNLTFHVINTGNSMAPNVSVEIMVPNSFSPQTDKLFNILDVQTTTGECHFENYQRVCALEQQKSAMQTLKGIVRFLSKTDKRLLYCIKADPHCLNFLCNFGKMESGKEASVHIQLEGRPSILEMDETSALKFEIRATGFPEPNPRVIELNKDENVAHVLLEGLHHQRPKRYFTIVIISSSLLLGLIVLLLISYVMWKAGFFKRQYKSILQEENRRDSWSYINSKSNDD
T1 sequence (P26010 20-798, chain 2 of 2): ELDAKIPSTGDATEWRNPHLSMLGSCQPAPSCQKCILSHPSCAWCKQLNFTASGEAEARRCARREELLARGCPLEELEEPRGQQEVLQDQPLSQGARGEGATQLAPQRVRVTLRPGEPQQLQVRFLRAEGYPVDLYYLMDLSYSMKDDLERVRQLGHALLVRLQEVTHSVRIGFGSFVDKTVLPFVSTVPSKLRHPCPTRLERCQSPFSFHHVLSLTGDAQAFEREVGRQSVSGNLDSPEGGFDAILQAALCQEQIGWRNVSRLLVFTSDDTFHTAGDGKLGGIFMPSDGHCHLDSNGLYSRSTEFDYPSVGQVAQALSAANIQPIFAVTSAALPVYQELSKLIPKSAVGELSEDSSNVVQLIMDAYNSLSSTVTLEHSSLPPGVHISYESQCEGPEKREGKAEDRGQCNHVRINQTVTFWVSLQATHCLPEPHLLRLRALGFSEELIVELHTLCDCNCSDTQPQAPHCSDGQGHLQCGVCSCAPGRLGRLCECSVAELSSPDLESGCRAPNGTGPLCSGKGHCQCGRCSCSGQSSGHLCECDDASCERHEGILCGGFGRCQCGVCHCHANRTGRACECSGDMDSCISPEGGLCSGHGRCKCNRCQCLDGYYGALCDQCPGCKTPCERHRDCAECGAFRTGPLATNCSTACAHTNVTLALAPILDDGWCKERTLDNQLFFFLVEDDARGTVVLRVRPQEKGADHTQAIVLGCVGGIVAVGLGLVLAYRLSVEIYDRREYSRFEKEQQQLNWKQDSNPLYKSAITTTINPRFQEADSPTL

integrin α4β7 [8] = target: T1, integrin α4β7; remark: listed apart in the source
integrin α4β7 [9] = target: T1, integrin α4β7; remark: listed apart in the source

Sequence of integrin α4β7 (human (endogenous in RPMI 8866–CXCR3)) (P13612 34-1032, chain 1 of 2): as the sequence (P13612 34-1032, chain 1 of 2) above
Sequence of integrin α4β7 (human (endogenous in RPMI 8866–CXCR3)) (P26010 20-798, chain 2 of 2, further chain): as the sequence (P26010 20-798, chain 2 of 2) above

- single-bond unbinding force [1]: 32 pN
- adhesion frequency [2]: 55%
- koff [3]: 0.4 s⁻¹
- adhesion frequency [4]: 25%
- koff [5]: 1.17 s⁻¹
- adhesion frequency [6]: 31%
- koff [6]: 1.03 s⁻¹
- single-bond unbinding force [6]: 35 to 80 pN
Molecule: MAdCAM-1 (adsorbed on the surface for AFM single-cell force spectroscopy) (from UniProt Q13477 19-382) (ligand)

- koff (integrin α4β7 [7]): 1.75 s⁻¹
- koff (integrin α4β7 [8]): 0.83 s⁻¹
- koff (integrin α4β7 [9]): 1.58 s⁻¹
B1: VCAM-1 (adsorbed on the surface for AFM single-cell force spectroscopy) (ligand, human, UniProt P19320 25-698, looked up)
chain: FKIETTPESRYLAQIGDSVSLTCSTTGCESPFFSWRTQIDSPLNGKVTNEGTTSTLTMNPVSFGNEHSYLCTATCESRKLEKGIQVEIYSFPKDPEIHLSGPLEAGKPITVKCSVADVYPFDRLEIDLLKGDHLMKSQEFLEDADRKSLETKSLEVTFTPVIEDIGKVLVCRAKLHIDEMDSVPTVRQAVKELQVYISPKNTVISVNPSTKLQEGGSVTMTCSSEGLPAPEIFWSKKLDNGNLQHLSGNATLTLIAMRMEDSGIYVCEGVNLIGKNRKEVELIVQEKPFTVEISPGPRIAAQIGDSVMLTCSVMGCESPSFSWRTQIDSPLSGKVRSEGTNSTLTLSPVSFENEHSYLCTVTCGHKKLEKGIQVELYSFPRDPEIEMSGGLVNGSSVTVSCKVPSVYPLDRLEIELLKGETILENIEFLEDTDMKSLENKSLEMTFIPTIEDTGKALVCQAKLHIDDMEFEPKQRQSTQTLYVNVAPRDTTVLVSPSSILEEGSSVNMTCLSQGFPAPKILWSRQLPNGELQPLSENATLTLISTKMEDSGVYLCEGINQAGRSRKEVELIIQVTPKDIKLTAFPSESVKEGDTVIISCTCGNVPETWIILKKKAETGDTVLKSIDGAYTIRKAQLKDAGVYECESKNKVGSQLRSLTLDVQGRENNKDYFSPE
